Laboratory results taken from US20110159588A1 (published 2011).

B4: TECD-FLAG (extracellular domain of TMEFF2 fused to a FLAG tag at the carboxy-terminus) (other)
chain: FPTSLSDCQTPTGWNCSGYDDRENDLFLCDTNTCKFDGECLRIGDTVTCVCQFKCNNDYVPVCGSNGESYQNECYLRQAACKQQSEILVVSEGSCATDAGSGSGDGVHEGSGETSQKETSTCDICQFGAECDEDAEDVWCVCNIDCSQTNFNPLCASDGKSYDNACQIKEASCQKQEKIEVMSLGRCQDNTTTTTKSEDGHYARTDYAENANKLEESAREHHIPCPEHYNGFCMHGKCEHSINMQEPSCRCDAGYTGQHCEKKWRADYKDDDDK
notes: Expressed in mammalian cells, purified from supernatant; also called FLAG-tagged TECD; TMEFF2-ECD
B5: TECD-Fc (extracellular domain of TMEFF2 fused to the Fc portion of human immunoglobulin gamma at the carboxy-terminus) (Fc fusion)
chain: FPTSLSDCQTPTGWNCSGYDDRENDLFLCDTNTCKFDGECLRIGDTVTCVCQFKCNNDYVPVCGSNGESYQNECYLRQAACKQQSEILVVSEGSCATDAGSGSGDGVHEGSGETSQKETSTCDICQFGAECDEDAEDVWCVCNIDCSQTNFNPLCASDGKSYDNACQIKEASCQKQEKIEVMSLGRCQDNTTTTTKSEDGHYARTDYAENANKLEESAREHHIPCPEHYNGFCMHGKCEHSINMQEPSCRCDAGYTGQHCEKK
notes: also called TECD-hFc; Fc-tagged TECD; not shown: subc

Assays:
[1] = target: T1, recombinant human soluble PDGF receptor α extracellular domain (PDGF sRα) (human, UniProt P16234 24-528, biotinylated using biotin-X-NHS in the ELISAs (sRα-bio); sites not stated); assay: ELISA, PDGF coat, sRα-bio, streptavidin-HRP detection (FIG. 9B)
T1 construct: extracellular domain; also called sRα-bio; soluble PDGFRα extracellular domain
T1 sequence (P16234 24-528): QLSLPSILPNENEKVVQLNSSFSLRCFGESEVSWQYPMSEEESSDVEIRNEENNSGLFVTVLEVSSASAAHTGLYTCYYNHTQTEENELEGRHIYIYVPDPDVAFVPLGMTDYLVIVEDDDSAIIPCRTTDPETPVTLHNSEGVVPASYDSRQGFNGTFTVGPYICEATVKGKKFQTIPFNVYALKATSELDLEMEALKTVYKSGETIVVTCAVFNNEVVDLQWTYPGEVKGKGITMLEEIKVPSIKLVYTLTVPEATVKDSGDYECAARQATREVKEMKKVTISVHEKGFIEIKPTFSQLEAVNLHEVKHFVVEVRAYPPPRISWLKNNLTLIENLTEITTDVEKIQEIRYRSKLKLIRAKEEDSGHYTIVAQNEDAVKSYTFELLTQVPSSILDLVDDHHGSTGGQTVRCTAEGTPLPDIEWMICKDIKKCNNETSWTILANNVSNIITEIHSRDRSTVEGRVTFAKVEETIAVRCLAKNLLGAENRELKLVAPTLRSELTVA
Experimental: FIG. 9 TECD-Fc competes with PDGF sRα for PDGF-AA binding. (A) PDGF-AA, but not AB, BB, CC or DD, binds to TECD-Fc. TECD-Fc was applied to wells coated with recombinant human PDGF-AA, AB, BB, CC or DD and detected with HRP-conjugated anti-human Fcγ. (B) sRα binds to all three recombinant human PDGF: AA, AB and BB. Biotinylated recombinant sRα (sRα-bio) was applied to wells coated with recombinant human PDGF-AA, AB, BB, CC or DD and detected with streptavidin-HRP. (C) 10 ng/ml TECD-Fc was mixed with increasing concentrations of sRα-bio and applied to PDGF-AA coated wells. Binding between sRα and PDGF-AA was detected using streptavidin-HRP.
(§1) To confirm that the binding observed is indeed due to the interaction between PDGF-AA and TMEFF2-ECD, we then immobilized the PDGF ligands on the plates, and applied the TMEFF2-ECD fused to a different tag, TECD-Fc, as an analyte.

[2] = target: B5; assay: ELISA, PDGF coat, anti-human Fc-HRP detection
Experimental: For the PDGF coat format, plates were coated with 1 μg/ml PDGF-AA, PDGF-AB, PDGF-BB, PDGF-CC, or PDGF-DD. Serially diluted TECD-Fc was added to the plates. Bound TECD-Fc was detected using horseradish peroxidase conjugated goat anti-human Fc (Jackson ImmunoResearch, West Grove, Pa.).
as §1

[3] = target: T2, recombinant human PDGF-AA (human, UniProt P04085 87-211, limits assumed); assay: co-immunoprecipitation with anti-gD mAb from transfected 293 cells, anti-PDGF-A blot
T2 construct: Bought homodimer
Experimental: For binding of PDGF ligands to membrane-bound TMEFF2 proteins, 293 cells were transfected with the various TMEFF2 constructs and changed to fresh growth medium containing 5 μg/ml PDGF-AA or AB 48 hours after transfection. After 1 hour of incubation unbound PDGF ligands were washed away with ice cold PBS and cells were lysed in lysis buffer containing 50 mM Tris pH 8.0, 150 mM NaCl, 1 mM EDTA, 1% NP-40, and protease and phosphatase inhibitors, pre-cleared with protein G SEPHAROSE, and immunoprecipitated with anti-TMEFF2, anti-PDGF, or anti-gD antibodies. The immune complexes were dissociated with SDS sample buffer with (reducing condition) or without (non-reducing condition) β-mercaptoethanol and resolved by 4-20% Tris-Glycine SDS PAGE, transferred to nitrocellulose membranes, and detected with the indicated antibodies using enhanced chemiluminescence.
TMEFF2 contains 2 FS modules and an EGF-like domain. To dissect which domain(s) of TMEFF2 is/are involved in its interaction with PDGF-AA, Herpes simplex type 1 glycoprotein D (gD)-epitope tagged deletion mutants of TMEFF2 were made and examined for their ability to bind PDGF-AA when expressed on the surface of 293 cells (FIG. 4). As expected, PDGF-AA co-immunoprecipitated with gD-tagged full-length TMEFF2 by an anti gD monoclonal antibody. […]

[4] = target: T3, EGFR (human epithelial growth factor receptor) ECD fused to hFcγ (human, UniProt P00533 25-645); assay: ELISA, TECD-FLAG coat, anti-human Fc-HRP detection
T3 construct: extracellular domain; not shown: human Fc gamma
Experimental: (§2) For the TMEFF2 coat format, MaxiSorp 96-well microwell plates (Thermo Scientific Nunc, Roskilde, Denmark) were coated with 1 μg/ml TECD-FLAG in 50 mM carbonate buffer, pH 9.6, overnight at 4° C. Plates were washed with PBS, pH 7.4 containing 0.05% polysorbate 20 and blocked with 0.5% bovine serum albumin (BSA), 15 parts per million Proclin 300 in phosphate buffered saline (PBS), pH 7.4 for 1 hour at room temperature. Serially diluted PDGF-AA, PDGF-AB or PDGF-BB in PBS containing 0.5% BSA, 0.05% polysorbate 20, and 15 parts per million Proclin 300 were added to the plates. After a 2-hour incubation, PDGF bound to the plates was detected by incubating biotinylated goat anti-human PDGF-AA or PDGF-AB or PDGF-BB in the wells for 1 hour, followed by horseradish peroxidase conjugated streptavidin (GE Healthcare, Piscataway, N.J.) for 30 min. Bound Fc-fusion protein was detected by adding goat anti-hman Fc-HRP (Jackson ImmunoResearch, West Grove, Pa.). After a final wash, the substrate 3,3′,5,5′-tetramethyl benzidine (Kirkegaard & Perry Laboratories) was added to plates and the reaction was stopped by adding 1 M phosphoric acid. Plates were washed with PBS, pH 7.4, containing 0.05% Tween 20, between steps and all incubation steps were performed at room temperature on an orbital shaker. Absorbance was read at 450 nm on a multiskan Ascent reader (Thermo Scientific, Hudson, N.H.). The titration curves were fitted using a four-parameter nonlinear regression curve-fitting program (KaleidaGraph, Synergy software, Reading, Pa.).
(§3) For testing binding of Fc-fusion proteins or his-tagged proteins to TECD-Flag coated on the plate, horseradish peroxidase conjugated goat anti-human Fc (Jackson ImmunoResearch, West Grove, Pa.) or biotinylated anti-His (Penta-His, Qiagen, Valencia, Calif.) followed by horseradish peroxidase conjugated streptavidin was used for detection. For testing TECD-Flag coat, serially diluted mouse anti-Flag (Sigma, St. Louis, Mo.) was added to the plates followed by horseradish peroxidase conjugated goat anti-mouse Fc (Jackson ImmunoResearch). Serially diluted PDGF-AA was also added to wells coated with goat anti-PDGF for comparison to wells coated with 1 μg/ml TECD-Flag. Bound PDGF-AA was detected as described above.

[5] = target: T4, HER2 (human EGF-like receptor 2) ECD fused to hFcγ (human, UniProt P04626 23-652); assay: ELISA, TECD-FLAG coat, anti-human Fc-HRP detection
T4 construct: extracellular domain; not shown: human Fc gamma
Experimental: as §2, §3

[6] = target: T5, HER3 (human EGF-like receptor 3) ECD fused to hFcγ (human, UniProt P21860 20-643); assay: ELISA, TECD-FLAG coat, anti-human Fc-HRP detection
T5 construct: extracellular domain; not shown: human Fc gamma
T5 sequence (P21860 20-643): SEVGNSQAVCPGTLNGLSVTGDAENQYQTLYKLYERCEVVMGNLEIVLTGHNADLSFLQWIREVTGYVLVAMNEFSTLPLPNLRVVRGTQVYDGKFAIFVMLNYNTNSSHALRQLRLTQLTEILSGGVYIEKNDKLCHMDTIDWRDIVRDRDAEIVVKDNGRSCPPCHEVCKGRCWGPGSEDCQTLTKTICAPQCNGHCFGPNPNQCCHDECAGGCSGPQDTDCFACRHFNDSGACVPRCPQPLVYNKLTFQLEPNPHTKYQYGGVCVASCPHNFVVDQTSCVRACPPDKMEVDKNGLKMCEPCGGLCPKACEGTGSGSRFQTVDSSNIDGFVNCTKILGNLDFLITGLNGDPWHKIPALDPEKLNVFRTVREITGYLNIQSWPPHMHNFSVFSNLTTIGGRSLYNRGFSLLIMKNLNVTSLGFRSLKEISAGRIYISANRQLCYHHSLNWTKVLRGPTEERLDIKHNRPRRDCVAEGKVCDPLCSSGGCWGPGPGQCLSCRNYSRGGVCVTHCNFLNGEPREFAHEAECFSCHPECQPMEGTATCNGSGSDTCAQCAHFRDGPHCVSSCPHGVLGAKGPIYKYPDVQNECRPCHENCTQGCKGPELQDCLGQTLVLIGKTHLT
Experimental: as §2, §3

[7] = target: T6, HER4 (human EGF-like receptor 4) ECD fused to hFcγ (human, UniProt Q15303 26-651); assay: ELISA, TECD-FLAG coat, anti-human Fc-HRP detection
T6 construct: extracellular domain; not shown: human Fc gamma
T6 sequence (looked up): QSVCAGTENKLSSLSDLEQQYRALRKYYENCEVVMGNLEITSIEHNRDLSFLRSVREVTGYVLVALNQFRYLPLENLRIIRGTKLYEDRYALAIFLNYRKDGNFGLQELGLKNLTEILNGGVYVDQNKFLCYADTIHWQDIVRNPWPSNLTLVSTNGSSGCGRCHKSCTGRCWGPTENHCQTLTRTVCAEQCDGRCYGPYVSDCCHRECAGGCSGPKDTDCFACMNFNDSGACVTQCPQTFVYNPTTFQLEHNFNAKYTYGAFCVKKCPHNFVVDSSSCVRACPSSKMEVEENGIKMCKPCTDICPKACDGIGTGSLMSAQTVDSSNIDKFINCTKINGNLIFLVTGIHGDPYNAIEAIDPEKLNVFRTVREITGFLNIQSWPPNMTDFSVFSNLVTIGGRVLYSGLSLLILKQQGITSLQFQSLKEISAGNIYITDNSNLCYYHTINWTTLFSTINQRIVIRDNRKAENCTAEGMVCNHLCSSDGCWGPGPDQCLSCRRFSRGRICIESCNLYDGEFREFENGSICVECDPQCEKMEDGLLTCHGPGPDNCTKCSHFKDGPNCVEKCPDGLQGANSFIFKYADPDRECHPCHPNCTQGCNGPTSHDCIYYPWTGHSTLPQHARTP
Experimental: as §2, §3

[8] = target: B4; assay: ELISA, TECD-FLAG coat, anti-human Fc-HRP detection
Experimental: as §2, §3

B1: recombinant human PDGF-BB (ligand, UniProt P01127 82-190, looked up)
chain: SLGSLTIAEPAMIAECKTRTEVFEISRRLIDRTNANFLVWPPCVEVQRCSGCCNNRNVQCRPTQVQLRPVQVRKIEIVRKKPIFKKATVTLEDHLACKCETVAAARPVT
notes: Bought homodimer
B1: binds [1]; no binding [2].

B2: recombinant human PDGF-CC (ligand, UniProt Q9NRA1 235-345, looked up)
chain: VVDLNLLTEEVRLYSCTPRNFSVSIREELKRTDTIFWPGCLLVKRCGGNCACCLHNCNECQCVPSKVTKKYHEVLQLRPKTGVRGLHKSLTDVALEHHEECDCVCRGSTGG
notes: Bought homodimer
B2: no binding [2].

B3: gD-TMEFF2-ΔFS I (gD-tagged TMEFF2 lacking the N-terminal follistatin module FS I) on 293 cells (receptor)
chain: KYALADASLKMADPNRFRGKDLPVLSGRCDICQFGAECDEDAEDVWCVCNIDCSQTNFNPLCASDGKSYDNACQIKEASCQKQEKIEVMSLGRCQDNTTTTTKSEDGHYARTDYAENANKLEESAREHHIPCPEHYNGFCMHGKCEHSINMQEPSCRCDAGYTGQHCEKKDYSVLYVVPGPVRFQYVLIAAVIGTIQIAVICVVVLCITRKCPRSNRIHRQKQNTGHYSSDNTTRASTRLI
notes: Deletion mutant; The true chain lacks the region up to and including FS I
B3: no binding (tested: 5 µg/ml) [3].

B4: no binding [4]; no binding [5]; no binding [6]. B4: no binding [7].

B5: no binding [8].
